The source of these data is patent US5700777A, “Fatty acid - pulmonary surfactant conjugates” (Abbott Laboratories, priority 1995, dated 1997).

Assay type in all cases: physicochemical
The nature of data set [1]: Adsorption rate, King-Clements system (Wilhelmy balance with stirred round Teflon dish). The conditions noted are these: 10 ml of diluted sample (1:50) added under constant agitation to 70 ml saline subphase; 37° C. On the procedure: A procedure similar to that described by Notter, et al., Pediatric Res. 16, 515-519, (1982) was employed to determine the absorption rate in the absence of diffusion resistance. The modified Wilhelmy surface balance as described above was used. However, instead of using a Langmuir trough a round Teflon dish (5.1 cm diameter) was employed. The subphase, 70 ml of 0.15M NaCl, was allowed to equilibrate to 37° C. in the incubator and was continuously stirred with a Teflon coated magnetic stirer. An aliquot of the peptide/lipid admixture containing 5 mg of total phospholipid was dispersed in 10 ml of 0.15M NaCl by vortexing for 10 seconds. This dispersion was then added to the saline subphase. Surface tension lowering was monitored using a strip chart recorder connected to the electrobalance output and data collected for 20 minutes.

A short description of data set [2]: Modified Wilhelmy surface balance (Langmuir trough): dynamic surface tension versus compressed surface area. The settings on record: for Wilhelmy-Langmuir Trough Equilibrum (equilibrium adsorption value): after a three (3) minute spreading time, total peptide 0.5 mg/ml; for Wilhelmy-Langmuir Trough Equilibrum (equilibrium adsorption value) / Wilhelmy-Langmuir Trough Max (maximum dynamic surface tension) / Wilhelmy-Langmuir Trough Min (minimum dynamic surface tension): 37° C.; for Wilhelmy-Langmuir Trough Max (maximum dynamic surface tension) / Wilhelmy-Langmuir Trough Min (minimum dynamic surface tension): peptide/lipid admixture, total peptide 0.5 mg/ml (two peptides: 0.25 mg/ml each), 675 μg phospholipid, seven compression-expansion cycles, average of 3 runs; for Surface activity of admixtures, in words: data of Tables 2 and 3 (Wilhelmy balance, King-Clements, pulsating bubble). An excerpt:
The dynamic surface tension lowering properties of the peptide/lipid admixtures were studied using a modified Wilhelmy Surface Balance (Langmuir Trough). The instrument consists of an all Teflon trough and movable Teflon ribbon (dam) barrier system which completely contains and defines a variable surface area. Surface area was varied through the use of a constant rate reversible 3-phase motor to drive the Teflon barrier. A Cahn 2000 electrobalance (Cahn Instruments, Cerittos, CA) with a sandblasted 1 cm platinum plate and stainless steel hangdown wire was employed to determine the surface tension at the liquid-air interface. The entire apparatus was situated in a thermostated incubator set at 45° C. Surface area-surface tension measurements were made by adding 950 ml of 0.15M NaCl to the trough. Subphase temperature was controlled during the measurements at 36°-38° C.
For each experiment 27 ul of peptide/lipid admixture was applied in a random array of 13 (.congruent.2 ul) droplets to the surface of the temperature controlled subphase and allowed to spread spontaneously for 3 minutes. (The 27 ul application corresponds to 675 ug of phospholipid). The trough surface area was then cycled from a maximum (445 sq. cm) to a minimum (178 sq. cm) surface area and back to maximum at a cycling rate of 3 cycles/min (compression ratio 2.5:1). The dynamic surface tension vs surface area was recorded for 7 complete compression-expansion cycles for each application.

Data set [3] in a line: Pulsating bubble surfactometer (PBS) surface tension. The conditions noted are these: after 100 cycles (5 minutes, 20 cycles/minute); phospholipid 1 mg/ml; 37° C.; diluent […] NaCl; mean of triplicate. On the procedure: The PBS equipment (Electronetics, Buffalo, N.Y.) used was essentially equivalent to that described in detail by G. Enhorning, J. Appld. Physiol. 43, 198-203, (1977). Recordings were made of the pressure gradient across the wall of a small air bubble, communicating with ambient air by means of a narrow chimney stack, but otherwise entirely surrounded by a 40 ul volume of the peptide/lipid admixture. The admixture concentration employed for these studies was 1 mg/ml total phospholipid (0.02 mg/ml total peptide) and the diluent was 0.15M NaCl. Immediately prior to loading the sample chamber, the diluted samples were sonicated for 15 seconds to remove any gas nuclei.
The pressure drop across the air-water interface was measured during pulsation by a pressure transducer, and the corresponding surface tension determined through the application of Young's law and the Laplace equation. Measurements were all made at 37° C. and the bubble pulsed at 20 cycles/minute to render respectively a maximum (1.1 mm) and a minimum (0.8 mm) bubble diameter. (This compression/expansion corresponds to a 50% change the surface area of the air-water interface).

On to “SPB(53-78): synthetic C-terminal SP-B fragment, sequence based on natural SP-B (YSVILLDTLLGRMLPQLVCRLVLRCS; Pulmonary surfactant-associated protein B; UniProt P07988 253-278, looked up, fragment) [reference compound]”, for which, in data set [1], the “King-Clements Adsorption (adsorption surface tension)” value came to 45.0 dynes/cm. Moreover, in data set [2], the “Wilhelmy-Langmuir Trough Equilibrum (equilibrium adsorption value)” value is 40.0 dynes/cm, the “Wilhelmy-Langmuir Trough Max (maximum dynamic surface tension)” value was found to be 49.3 dynes/cm and the “Wilhelmy-Langmuir Trough Min (minimum dynamic surface tension)” value worked out at 0.1 dynes/cm. Besides, in data set [3], the “Surface Tension Values Maximum (pulsating bubble apparatus)” value was 55.5 dynes/cm and the “Surface Tension Values Minimum (pulsating bubble apparatus)” value turned out to be 4.9 dynes/cm.

On to “C-14 (Myristic acid)-SP-C (FGIPCCPVHLKRLLIVVVVVVLIVVVIVGALLMG; Pulmonary surfactant-associated protein C N-terminal myristic acid; UniProt P11686 24-57, looked up, fragment) [C14 -SPC(1-34), myristic acid (C14) covalently attached to the N-terminal end of synthetic human SP-C(1-34)]”, for which the “Surface activity of admixtures, in words” value in data set [2] is “unusual surface activity”.

Regarding “C-16 (Palmitic acid)-SP-C (FGIPCCPVHLKRLLIVVVVVVLIVVVIVGALLMG; Pulmonary surfactant-associated protein C N-terminal palmitic acid; UniProt P11686 24-57, looked up, fragment) [C16 -SPC(1-34)]”, in data set [2], the “Surface activity of admixtures, in words” value was “unusual surface activity”.

B1: SPB(1-78): synthetic full length SP-B peptide, sequence based on natural SP-B (peptide, UniProt P07988 201-279, looked up)
Pulmonary …: FPIPLPYCWLCRALIKRIQAMIPKGALAVAVAQVCRVVPLVAGGICQCLAERYSVILLDTLLGRMLPQLVCRLVLRCSM
modifications: Pulmonary surfactant-associated protein B
As to B1, the “King-Clements Adsorption (adsorption surface tension)” value in data set [1] worked out at 30.0 dynes/cm. For the same molecule, in data set [2], the “Wilhelmy-Langmuir Trough Equilibrum (equilibrium adsorption value)” value came to 38.0 dynes/cm, the “Wilhelmy-Langmuir Trough Max (maximum dynamic surface tension)” value is recorded as 45.0 dynes/cm and the “Wilhelmy-Langmuir Trough Min (minimum dynamic surface tension)” value is on record as 0.0 dynes/cm. Also, in data set [3], the “Surface Tension Values Maximum (pulsating bubble apparatus)” value is reported as 49.0 dynes/cm and the “Surface Tension Values Minimum (pulsating bubble apparatus)” value turned out to be 4.2 dynes/cm.
